Consider two substances from US20060110401A1, “Mixture of peptides from c and ns3 proteins of the hepatitis c virus and applications thereof” (priority 2002, published 2006).

What is called IC50 is the midpoint of a concentration-inhibition curve. Lower therefore signals inhibition by little substance.

Experiment [1] addresses HLA-DR7 (DRB1*0701) (human). The experiment can be described thus: competition binding.
Experiment [2] deals with HLA-DR15 (DRB1*1501) (human). The experiment can be described thus: competition binding.
The target in experiment [3] is HLA-DR3 (DRB1*0301) (human). The experiment can be described thus: competition binding.
Experiment [4] concerns the target HLA-DRB4 (DRB4*0101) (human). Kind of experiment: competition binding.
In experiment [5] the target is HLA-DR4 (DRB1*0401) (human). Kind of experiment: competition binding.
Experiment [6] addresses HLA-DRB3 (DRB3*0101) (human). The experiment can be described thus: competition binding.
For experiment [7], the target named is HLA-DR11 (DRB1*1101) (human). Kind of experiment: competition binding.
Experiment [8] concerns the target HLA-DRB5 (DRB5*0101) (human). The experiment can be described thus: competition binding.
The target of experiment [9] is HLA-DR1 (DRB1*0101) (human). Kind of experiment: competition ELISA, purified HLA II; tracer biotinylated HA 306-318.

Turning to “9N 1036-1055 (from UniProt P26664 1036-1055)”, the IC50 in [1] was 1250 nM; in experiment [2], 10000 nM; in experiment [3], 6000 nM; in experiment [4], 150 nM; in experiment [5], 60 nM; in [6] it was 35000 nM. The half-inhibitory concentration (IC50) in [7] is 163 nM; in experiment [8] it was 10 nM.
For the substance “28N 1524-1553 (peptide; other documents disagree on this pair)”, in experiment [9], the half-maximal inhibitory concentration (IC50) was found to be 2 nM.
